From paper PMC6117947, “A role for trypanosomatid aldo-keto reductases in methylglyoxal, prostaglandin and isoprostane metabolism” (Biochemical Journal, 2018)
Each block holds one molecule with its values, some of them ahead of it.

Key:
[1] = biological target: Leishmania infantum prostaglandin F synthase 1 (LiPGFS1) (Leishmania infantum); assay: SEC; Superdex 75 10/300; LiPGFS1 kept 96 h at 4°C without a reducing agent, run without TCEP; the dimer relies on a disulfide bond
[2] = substrate: CC(=O)C=O; assay: purified protein; type: biochemical, Trypanosoma cruzi; details: 100 µM NADPH, 25 mM HEPES, 150 mM NaCl, pH 7.33
[3] = substrate: O=CC(=O)c1ccccc1; assay: purified protein; type: biochemical, Trypanosoma cruzi; details: 100 µM NADPH, 25 mM HEPES, 150 mM NaCl, pH 7.33
[4] = substrate: O=CC(O)CO; assay: purified protein; type: biochemical, Trypanosoma cruzi; details: 100 µM NADPH, 25 mM HEPES, 150 mM NaCl, pH 7.33
[5] = substrate: O=CC=O; assay: purified protein; type: biochemical, Trypanosoma cruzi; details: 100 µM NADPH, 25 mM HEPES, 150 mM NaCl, pH 7.33
[6] = substrate: O=Cc1ccccc1[N+](=O)[O-]; assay: purified protein; type: biochemical, Trypanosoma cruzi; details: 100 µM NADPH, 25 mM HEPES, 150 mM NaCl, pH 7.33
[7] = substrate: CC(=O)C=O; assay: purified protein; type: biochemical, Leishmania infantum; details: 100 µM NADPH, 25 mM HEPES, 150 mM NaCl, pH 7.33
[8] = substrate: O=CC(=O)c1ccccc1; assay: purified protein; type: biochemical, Leishmania infantum; details: 100 µM NADPH, 25 mM HEPES, 150 mM NaCl, pH 7.33
[9] = substrate: O=CC(O)CO; assay: purified protein; type: biochemical, Leishmania infantum; details: 100 µM NADPH, 25 mM HEPES, 150 mM NaCl, pH 7.33
[10] = substrate: O=Cc1ccc([N+](=O)[O-])cc1; assay: purified protein; type: biochemical, Leishmania infantum; details: 100 µM NADPH, 25 mM HEPES, 150 mM NaCl, pH 7.33
[11] = substrate: O=Cc1ccccc1[N+](=O)[O-]; assay: purified protein; type: biochemical, Leishmania infantum; details: 100 µM NADPH, 25 mM HEPES, 150 mM NaCl, pH 7.33
[12] = substrate: O=CC=O; assay: purified protein; type: biochemical, Leishmania infantum; details: 100 µM NADPH, 25 mM HEPES, 150 mM NaCl, pH 7.33
[13] = substrate: O=Cc1cccc([N+](=O)[O-])c1; assay: purified protein; type: biochemical, Leishmania infantum; details: 100 µM NADPH, 25 mM HEPES, 150 mM NaCl, pH 7.33
[14] = substrate: CC(=O)C=O; assay: purified protein; type: biochemical, Trypanosoma brucei; details: 100 µM NADPH, 25 mM HEPES, 150 mM NaCl, pH 7.33
[15] = substrate: O=CC(=O)c1ccccc1; assay: purified protein; type: biochemical, Trypanosoma brucei; details: 100 µM NADPH, 25 mM HEPES, 150 mM NaCl, pH 7.33
[16] = substrate: O=Cc1ccc([N+](=O)[O-])cc1; assay: purified protein; type: biochemical, Trypanosoma brucei; details: 100 µM NADPH, 25 mM HEPES, 150 mM NaCl, pH 7.33
[17] = substrate: O=Cc1cccc([N+](=O)[O-])c1; assay: purified protein; type: biochemical, Trypanosoma brucei; details: 100 µM NADPH, 25 mM HEPES, 150 mM NaCl, pH 7.33
[18] = substrate: O=Cc1ccccc1[N+](=O)[O-]; assay: purified protein; type: biochemical, Trypanosoma brucei; details: 100 µM NADPH, 25 mM HEPES, 150 mM NaCl, pH 7.33

percent of the protein eluting as dimer [1]: 25% | stoichiometry N [1]: 2
Molecule: Leishmania infantum prostaglandin F synthase 1 (LiPGFS1) (enzyme)

B1: TcAKR (Trypanosoma cruzi) (protein)
chain: MNCNYNCVTLHNSAQMPQLGLGVWRAQDGAETANAVRWAIEAGYRHIDTACIYNNEKGVGQGIRESGVPREEVWVTTKVWNSDQGYEKTLAAFERSRELLGLEYIDLYLIHWPGKKKFVDTWKALEKLYEEKKVRAIGVSNFEPHHLTELFKSCKIRPMVNQVELHPLFQQRALREFCKQHNIAVTAWSPLGSGDEAGILKNHVLGEIAKKHNKSPAQVVIRWDIQHGIVTIPKSTNKGRIQENFNVWDFKLTEEEMRQIDELNEDKRIGADPDNFFPGGEE
notes: full-length ORF, pET15b-TEV, E. coli Rosetta (DE3) pLysS, His6 tag cut with TEV protease; monomer
kcat [2]: 4.69 ± 0.03 s⁻¹ | kcat/Km [2]: 19500 M⁻¹ s⁻¹ | Km [3]: 50 ± 3 µM | kcat [3]: 4.46 ± 0.08 s⁻¹ | kcat/Km [3]: 89200 M⁻¹ s⁻¹ | Km [4]: 1500 ± 170 µM | kcat [4]: 4.94 ± 0.11 s⁻¹ | kcat/Km [4]: 3290 M⁻¹ s⁻¹ | Km [5]: 8300 ± 310 µM | kcat [5]: 4.56 ± 0.05 s⁻¹ | kcat/Km [5]: 549 M⁻¹ s⁻¹ | Km [6]: 710 ± 80 µM | kcat [6]: 2.25 ± 0.11 s⁻¹ | kcat/Km [6]: 3170 M⁻¹ s⁻¹

B2: LiPGFS1 (Leishmania infantum) (protein)
chain: MTGKCTHVTLGNGVQVPQLGIGTWEAKNGNEVVQNIKWAINAGYRHIDTAHYYKNEKGVGQGISECGVPRSDIFVTTKLWNYDHGYESALAAFEQSRQALGVEYVDLYLIHWPGPNRSYIETWRAFEKLYEMKKVRAIGVSNFEPHHLDDLLANCTVPPMVNQVEMHPHFQQKALRAYCAEKNIAVTAWRPLGKGALLTEPQLVELAEKHKRSAAQVIIRWLIQLGVIAIPKSSHEERIKQNFDVFDFELSPEDMRRLESMDKNSRIGPSPETFFPTECK
notes: synthetic full-length ORF (GeneART), pET15b-TEV, E. coli, His6 tag cut with TEV protease; mainly monomer
Km [7]: 800 ± 70 µM | kcat [7]: 8.72 ± 0.17 s⁻¹ | kcat/Km [7]: 10900 M⁻¹ s⁻¹ | Km [8]: 140 ± 8 µM | kcat [8]: 10.4 ± 0.22 s⁻¹ | kcat/Km [8]: 74300 M⁻¹ s⁻¹ | Km [9]: 2870 ± 80 µM | kcat [9]: 8.72 ± 0.11 s⁻¹ | kcat/Km [9]: 3040 M⁻¹ s⁻¹ | Km [10]: 430 ± 26 µM | kcat [10]: 0.48 ± 0.01 s⁻¹ | kcat/Km [10]: 1110 M⁻¹ s⁻¹ | Km [11]: 320 ± 20 µM | kcat [11]: 8.5 ± 0.21 s⁻¹ | kcat/Km [11]: 26600 M⁻¹ s⁻¹

B3: LiPGFS2 (Leishmania infantum) (protein)
chain: MADVGKAMVTLSNGVQMPQLGLGVWQSPAGEVTANAVKWALCAGYRHIDTAAIYKNEESVGAGLRASGVPREDVFITTKLWNTEQGYESTLAAFEESRQKLGVDYIDLYLIHWPRGKDIVSKEGKKYLDSWRAFEQLYKDKKVRAIGVSNFHIHHLEDVLAMCTVTPMVNQVELHPLNNQAELRAFCDAKQIKVEAWSPLGQGKLLSNPILAAIGAKYNKTAAQVILRWNIQKNLITIPKSVHKERIEENADVFNFELGAEDVMRIDALNTNSRYGPDPDEAQF
notes: full-length ORF from genomic DNA, pET15b-TEV, E. coli, His6 tag cut with TEV protease; monomer
kcat [7]: 1.13 ± 0.01 s⁻¹ | kcat/Km [7]: 56500 M⁻¹ s⁻¹ | Km [12]: 560 ± 50 µM | kcat [12]: 1.05 ± 0.02 s⁻¹ | kcat/Km [12]: 1880 M⁻¹ s⁻¹ | Km [10]: 4 ± 0.6 µM | kcat [10]: 1.13 ± 0.05 s⁻¹ | kcat/Km [10]: 283000 M⁻¹ s⁻¹ | Km [13]: 2 ± 0.3 µM | kcat [13]: 1.04 ± 0.02 s⁻¹ | kcat/Km [13]: 520000 M⁻¹ s⁻¹ | Km [11]: 2.4 ± 0.3 µM | kcat [11]: 1.04 ± 0.02 s⁻¹ | kcat/Km [11]: 433000 M⁻¹ s⁻¹

B4: TbPGFS (Trypanosoma brucei brucei) (protein)
chain: MALTQSLKLSNGVMMPVLGFGMWKLQDGNEAETATMWAIKSGYRHIDTAAIYKNEESAGRAIASCGVPREELFVTTKLWNSDQGYESTLSAFEKSIKKLGLEYVDLYLIHWPGKDKFIDTWKAFEKLYADKKVRAIGVSNFHEHHIEELLKHCKVAPMVNQIELHPLLNQKALCEYCKSKNIAVTAWSPLGQGHLVEDARLKAIGGKYGKTAAQVMLRWEIQAGVITIPKSGNEARIKENGNIFDFELTAEDIQVIDGMNAGHRYGPDPEVFMNDF
notes: as for B3
kcat [14]: 0.38 ± 0.007 s⁻¹ | kcat/Km [14]: 38000 M⁻¹ s⁻¹ | Km [15]: 5 ± 0.8 µM | kcat [15]: 0.34 ± 0.014 s⁻¹ | kcat/Km [15]: 68000 M⁻¹ s⁻¹ | Km [16]: 4.3 ± 0.2 µM | kcat [16]: 0.43 ± 0.008 s⁻¹ | kcat/Km [16]: 100000 M⁻¹ s⁻¹ | Km [17]: 2 ± 0.1 µM | kcat [17]: 0.34 ± 0.005 s⁻¹ | kcat/Km [17]: 170000 M⁻¹ s⁻¹ | Km [18]: 3 ± 0.3 µM | kcat [18]: 0.41 ± 0.002 s⁻¹ | kcat/Km [18]: 140000 M⁻¹ s⁻¹
